Test results reported in patent US20190225661A1.

Molecular target: non-specific polyclonal IgG
Assay: non-specific polyclonal IgG (2 ug/ml) added as bait, protein A Sepharose pull-down, deoxycholate release, HGF ELISA

HGF recovered from beads after pull-down with IgG: 2.8 ng/mL
Substance: Hepatocyte Growth Factor (HGF) in human epicardial-derived cell-conditioned medium (EPI CdM) (ligand)
